Results: patent US11370841B2, “Methods of treating fibroblast growth factor 19-mediated cancers and tumors” (NGM Biopharmaceuticals, Inc., priority 2016, dated 2022)

Tests used:
[1] = tested on: primary mouse hepatocytes; experiment: In vitro pSTAT3 activation in primary mouse hepatocytes; format: cell-based
Description: Primary mouse hepatocytes were isolated from 8-10 week old wild type mice (BioReclamation/IVT). Cells were diluted in attachment media, and cells were plated on collagen-coated 6-well plate (Becton Dickinson). Four hours later, cells were changed into M199 media supplemented with 10% FBS, 2 mM glutamine, 100 unit/ml penicillin, 100 unit/ml streptomycin, and cultured for 16 hours at 37° C. When indicated, 50 ng/ml FGF19 protein or 50 ng/ml mouse IL-6 (Peprotech) were added.
Cell extracts were prepared in 50 mM Tris-Cl, PH 7.2, 150 mM NaCl, 1% NP-40, 0.1% SDS, 0.5% sodium deoxycholate supplemented with a protease inhibitor cocktail (Roche) and phosphatase inhibitors (Sigma, phosphatase inhibitor cocktail set 2 and set 3), and protein concentrations were determined by BCA protein assay (Thermo Scientific).
Immunoblotting. Cell or tissue lysates were mixed with 4×SDS sample loading buffer (50 mM Tris-Cl, pH6.8, 2.5% SDS, urea, 4% β-mercaptoethanol), heated for 10 minutes at 95° C., and separated on 4-20% SDS-polyacrylamide gels (Life Technologies) in 1×MOPS running buffer. Proteins were transferred onto PVDF membranes (GE Healthcare). Membranes were blocked in TBST buffer (20 mM Tris-Cl, pH 7.6, 137 mM NaCl, 0.1% Tween-20) containing 5% non-fat dry milk for 1 hour at room temperature, and incubated with anti-pSTAT3^Y705, anti-total STAT3, anti-pERK, anti-total ERK, or anti-β-actin antibodies in blocking buffer at 4° C. overnight. Membranes were washed in TBST extensively, and bound proteins were detected with horseradish peroxidase-conjugated goat-anti-mouse IgG or goat-anti-rabbit IgG antibodies (GE Healthcare) for 1 hour at room temperature. […]
To investigate an in vitro direct effect of FGF19 on STAT3 activation in isolated hepatocytes, pSTAT3^Y705 levels in primary cultures of hepatocytes upon FGF19 stimulation were analyzed by western blotting. […] Cell lysates were prepared at the indicated time points following FGF19 stimulation and analyzed for phosphorylation of the various proteins.

[2] = tested on: FGF19-mediated hepatocellular carcinoma; experiment: AAV-FGF19 tumorigenicity and metabolic study in Stat3f/f and Stat3ΔHep mice; settings: for Reduction in hepatic mRNA levels of Cyp7a1 / Reduction in hepatic mRNA levels of Cyp8b: AAV-expressed FGF19, 12 months
Description: Hepatocyte-specific Stat3 deletion. […] Stat3^f/f mice injected with AAV-TBG-Cre alone served as Stat3^ΔHep controls. Stat3^f/f mice were used as wild type controls. AAV-TBG-Cre drives Cre recombinase expression under TBG promoter, which allows hepatocyte-specific expression.
52 weeks after AAV injection, mice were euthanized and examined for liver tumor formation. The maximum diameter of liver tumor nodules in each mouse was measured with a caliper and total numbers of tumor nodules per liver were recorded. Livers were weighed and collected for histological examination or gene expression analysis.
Glucose and body composition. Blood concentrations of ad libitum fed glucose were measured in conscious animals from a hand-held glucometer (Accu-check, Roche Diagnostics) using tail vein blood. Body weight and body composition (EcoMRI whole body composition analyzer) were measured at designated times. Mice were euthanized 52 weeks post-AAV administration. Macroscopic liver tumors were counted and the maximal diameter of the tumors recorded.
Gene expression analysis.
Blood parameters. Blood was collected from tail vein in un-anesthetized animals using microvette serum gel tubes (Sarstedt) for measurements of glucose, insulin, ALT, AST, ALP, bile acids, and FGF19 concentrations. Serum samples were prepared by centrifugation at 4° C. for 10 minutes at 6000 g after clotting at room temperature for 30 minutes. For HbA1c measurements, whole blood was collected after euthanasia by cardiac puncture into EDTA-tubes and quickly inverted multiple times. HbA1c (from whole blood samples) and liver enzyme (from serum samples) levels were measured on Cobas Integra 400 Clinical Analyzer (Roche Diagnostics). Serum FGF19 level was determined by FGF19 enzyme-linked immunosorbent assays (ELISA) (Biovendor). Serum insulin was assessed with ELISA kits from ALPCO. Concentrations of total bile acids in serum were determined using a 3β-hydroxysteroid dehydrogenase method (Diazyme). All assays were performed according to the manufacturers' instructions.
Histology and immunohistochemistry. Livers were fixed in 10% neutral-buffered formalin and embedded in paraffin. 5 μm sections were deparaffinized in xylenes, rehydrated sequentially in graded ethanol (100%, 95%, 80%, 70%, 50%, 2 minutes each). Hematoxylin and eosin staining was performed using standard methods. For immunohistochemical studies, liver sections were subjected to antigen retrieval in a citrate-based Antigen Unmasking Solution (Vector Laboratories), and incubated for 30 minutes with 3% H2O2 at room temperature to block endogenous peroxidase activity. Sections were stained with primary antibodies against glutamine synthetase (Thermo Fisher), BrdU, PCNA, or STAT3 in PBS containing 10% goat serum. Biotinylated secondary antibodies, ABC-HRP reagent (Vectastain ABC kit, #PK-6100, Vector Laboratories) and di-amine-benzidine (DAB) colorimetric peroxidase substrate (#SK-4100, Vector Laboratories) were used for detection. When indicated, sections were counterstained with hematoxylin. Digital imaging microscopy was performed using a Leica DM4000 microscope equipped with DFC500 camera and a scanning platform (Leica). Images for the entire liver section were acquired by stitching 70-96 fields together using Surveyor program for morphometric analysis. Glutamine synthetase-positive tumor areas were quantified using Measure/Count/Area tool from ImagePro software.

FGF19-mediated HCC = experiment: Anti-IL-6 treatment in Mdr2-/- mice expressing AAV-FGF19; format: in vivo; settings: prolonged expression of FGF19
Description: Blood parameters. […] Serum insulin was assessed with ELISA kits from ALPCO. […] All assays were performed according to the manufacturers' instructions.
Histology and immunohistochemistry. […] Hematoxylin and eosin staining was performed using standard methods. […] When indicated, sections were counterstained with hematoxylin.
Anti-IL-6 treatment in Mdr2^−/− mice. […] Anti-IL-6 treatment started 14 weeks after AAV injection. Mice were dosed with anti-mouse IL-6 antibody (Bio-X-Cell) or an isotype control antibody (Bio-X-Cell) once weekly i.p. at 10 mg/kg for a total of 10 doses. Mice were euthanized 24 weeks post-AAV administration for liver tumor assessment. When indicated, Mdr2^−/− mice injected with AAV-GFP serve as controls for evaluating serum levels of liver enzymes.

[3] = Stat3f/f mice, AAV-expressed FGF19

Substance: FGF19: Fibroblast growth factor 19, mature human 194 amino acid polypeptide (SEQ ID NO: 1); recombinant protein or AAV-expressed
- STAT3 phosphorylation (pSTAT3 Y705) by western blotting ([1]; isolated mouse hepatocytes, 50 ng/ml): did not enhance STAT3 phosphorylation
- Phosphorylation of ERK1 and ERK2 ([1]; primary cultures of mouse hepatocytes): apparent
- Body weight [2, 3]: weight-lowering
- Glucose [2, 3]: glucose-lowering
- Reduction in hepatic mRNA levels of Cyp7a1 ([2]; Stat3f/f mice): 77%
- Reduction in hepatic mRNA levels of Cyp8b ([2]; Stat3f/f mice): 95%
- Reduction in hepatic mRNA levels of Cyp7a1 ([2]; Stat3ΔHep mice): 87%
- Reduction in hepatic mRNA levels of Cyp8b ([2]; Stat3ΔHep mice): 88%
- Liver tumor formation (FGF19-mediated HCC): induced liver tumor formation
